Results as given in PMC10258794, “To Fold or Not to Fold: Diastereomeric Optimization of an α-Helical Antimicrobial Peptide” (Journal of Medicinal Chemistry, 2023).
Non-standard residues stand in square brackets, D forms with d. No end group written: not given here.

Molecular target: the molecule itself
Experiment: crystal structure; co-crystallisation of the C-fucosylated peptide with LecB, sitting drop vapor diffusion, 18 °C; LecB 5 mg/mL in water with 6 mM CaCl2 and MgCl2; peptide at 5:1 molar excess over the LecB monomer

B1: FHP30 (peptide)
peptide: {α‑L‑fucosyl‑acetyl}-K[dK]L[dL]K[dL]L[dK]L[dL]L
notes: also called fucosylated analogue of HP30; source: synthetic peptide (Fmoc solid-phase synthesis on Tentagel S RAM resin, preparative RP-HPLC)
**Q.** With B1 as the protein, how does the “stoichiometry N” value read?
**A.** The value was 4.
